{"source": "patent US20240409637A1", "about": "(Regeneron, published 2024)", "key": {"[1]": {"biological_target": "T1, human CD8 on cells (primary human CD8 positive T cells); T cells of mice expressing hCD8; human PBMC-derived … (human, UniProt P01732 22-235; P10966 22-210)", "T1 construct": "This is native CD8 on cells", "T1 sequence (P01732 22-235, chain 1 of 2)": "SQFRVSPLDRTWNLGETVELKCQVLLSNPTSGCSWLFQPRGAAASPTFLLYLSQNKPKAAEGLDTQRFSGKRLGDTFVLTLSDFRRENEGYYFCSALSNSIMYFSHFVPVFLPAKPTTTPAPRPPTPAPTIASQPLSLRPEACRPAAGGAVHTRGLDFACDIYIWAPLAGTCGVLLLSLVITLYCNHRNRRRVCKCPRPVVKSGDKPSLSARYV", "T1 sequence (P10966 22-210, chain 2 of 2)": "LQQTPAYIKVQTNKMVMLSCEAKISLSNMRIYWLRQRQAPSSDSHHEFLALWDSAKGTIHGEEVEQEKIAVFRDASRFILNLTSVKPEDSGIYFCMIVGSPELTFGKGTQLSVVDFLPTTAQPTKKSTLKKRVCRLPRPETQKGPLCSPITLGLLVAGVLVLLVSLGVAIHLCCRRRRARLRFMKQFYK", "experiment": "flow cytometry (geometric MFI of APC, secondary APC goat anti-mouse IgG) on primary human CD8 positive T cells; four-parameter fit; unit taken from the axis 'Concentration of Antibody Log (M)' [panel Human CD8+ T-cells, table under the plot]", "description": "(§1) mAb1 and isotype control antibodies were 4 fold serially diluted in stain buffer (PBS containing 2% FBS) in either an 8-point titration for human CD8 positive T cells or 11 point titration for cynomolgus monkey T cells, starting at a concentration of 200 nM. A sample without primary antibody, stain buffer only, was also included as a control. Antibody titrations were plated out, 50 ul/well, into V-bottom microplates. Primary human and cynomolgus monkey T cells were stained for 15 minutes with LIVE/DEAD™ Fixable Violet Dead Cell Stain (Invitrogen) diluted 1:1000 in PBS. Cells were washed twice, and resuspended in PBS containing 2% FBS. To gate out CD4+ monkey T cells a CD4 antibody from BD Biosciences, that reacts with cynomolgus CD4+ T cells, was incubated with monkey T cells for 30 min on ice and cells were subsequently washed once with stain buffer. Human CD8 positive and monkey T cells in stain buffer were plated such that 50 ul of cell suspension, containing approximately 150,000 T cells, were added into wells of the 96-well V-bottom microplate containing the titrated antibodies. […] Samples were analyzed with the FlowJo10 software such that only viable, CD8 positive, single cells were evaluated for antibody binding."}, "[2]": {"biological_target": "T2, cynomolgus monkey CD8 on cynomolgus monkey T cells (cynomolgus monkey)", "experiment": "flow cytometry on cynomolgus monkey T cells", "description": "as §1"}, "[3]": {"biological_target": "T1, human CD8 on cells (primary human CD8 …)", "experiment": "flow cytometry on primary human CD8 positive T cells, APC anti-mouse IgG secondary", "description": "as §1"}, "[4]": {"biological_target": "T1, human CD8 on cells (primary human CD8 …)", "experiment": "flow cytometry on primary human CD8 positive T cells", "description": "Recombinant human IL-2 (50 IU/ml) was supplemented into culture media 72 hours post CD3/CD28 Dynabead incubation. When cells had expanded to the necessary cell number for flow cytometry analysis, the Dynabeads were removed by magnetic separation and cells were immediately used to determine the binding of CD8 antibodies or isotype controls.\nas §1, with “buffer.” for “buffer. Human CD8 positive and monkey T cells in stain buffer were plated such that 50 ul of cell suspension, containing approximately 150,000 T cells, were added into wells of the 96-well V-bottom microplate containing the titrated antibodies.”"}, "[5]": {"biological_target": "T2, cynomolgus monkey CD8 on cynomolgus …", "experiment": "flow cytometry on cynomolgus monkey T cells (CD4+ gated out), APC anti-mouse IgG secondary", "description": "as §1"}, "[6]": {"biological_target": "T2, cynomolgus monkey CD8 on cynomolgus …", "experiment": "flow cytometry (geometric MFI of APC, secondary APC goat anti-mouse IgG) on cynomolgus monkey T cells gated on CD8 positive cells; four-parameter fit; unit taken from the axis 'Concentration of Antibody Log (M)' [panel Cynomolgus Monkey T-cells, table under the plot]", "description": "as §1"}, "[7]": {"biological_target": "T3, hCD8α with a C-terminal myc-myc-polyhistidine tag (hCD8α.mmh, REGN3940) (human, UniProt P01732 22-182)", "T3 construct": "not shown: C-terminal myc-myc-polyhistidine tag", "T3 sequence (P01732 22-182 limits assumed)": "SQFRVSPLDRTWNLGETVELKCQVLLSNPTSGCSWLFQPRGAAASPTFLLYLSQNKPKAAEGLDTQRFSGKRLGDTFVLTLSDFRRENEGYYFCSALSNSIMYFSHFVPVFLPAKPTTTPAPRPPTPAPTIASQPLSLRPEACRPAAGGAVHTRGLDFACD", "experiment": "SPR (Sierra Sensors MASS-1), mAb captured by anti-mouse Fc, hCD8α.mmh as analyte, 25°C", "description": "Equilibrium dissociation constants (KD values) for hCD8α.mmh binding to purified anti-CD8 mAbs were determined using a real-time surface plasmon resonance biosensor using a Sierra Sensors MASS-1 high-capacity amine sensor surface was derivatized by amine coupling with a polyclonal goat anti-mouse Fc antibody (GE, #BR-1008-38) to capture purified anti-CD8 mAbs. SPR binding studies were performed in a buffer composed of 0.01M HEPES pH 7.4, 0.15M NaCl, 3 mM EDTA, 0.05% v/v Surfactant P20 (HBS-ET running buffer). Different concentrations of hCD8α with a C-terminal myc-myc-polyhistidine tag (hCD8α.mmh, REGN3940) prepared in HBS-ET running buffer (ranging from 300 nM to 3.7 nM, 3-fold dilutions) were injected over the anti-CD8 mAb captured surface at a flow rate of 50 μL/minute. Association of hCD8α.mmh to the captured monoclonal antibody was monitored for 4 minutes and the dissociation of hCD8α.mmh in HBS-ET running buffer was monitored for 10 minutes. All of the binding kinetics experiments were performed at 25° C. Kinetic association (kₐ) and dissociation (kd) rate constants were determined by fitting the real-time sensorgrams to a 1:1 binding model using Scrubber 2.0c curve fitting software. Binding dissociation equilibrium constants (KD) and dissociative half-lives (t½) were calculated from the kinetic rate constants as: […]"}, "[8]": {"biological_target": "human CD8 alpha and beta subunit on JRT3.T3/AP1-Luc/CD28/CD8AB/1G4AB clone 18 reporter T cells (human, UniProt P01732 22-235; P10966 22-210)", "sequence (P01732 22-235, chain 1 of 2)": "as the sequence (P01732 22-235, chain 1 of 2) above", "sequence (P10966 22-210, chain 2 of 2)": "as the sequence (P10966 22-210, chain 2 of 2) above", "experiment": "cell-based or functional assay"}}, "data": [{"binder": "mAb1 (anti-CD8 monoclonal antibody) (antibody, V domains shown, It was captured by anti-mouse Fc in SPR and detected with anti-mouse IgG in flow cytometry; It is tied here because mAb1 is the only exemplary antibody; also called H2aM25428N; mAb1-L1) VH: QVQLVESGGGVDQPGRSLRLSCAASGFIFSNYGIHWVRQAPGKGLEWVAVIWYDGSNKYFEDSVKGRFNISRDNSKNIVYLQMNSLRAEDTAVYFCARSYDMLTGSGDYYGLDVWGQGTTVTVSS VL: DIQMTQSPSSLSASVGDRVTITCRASQDITNYLAWFQQKPGKAPKSLIYGASSLQSGVPSKFSGSGSGTDFTLTISSLQPEDFATYYCQQYNNYPLTFGGGTKVEIK", "values": [{"measurement": "EC50", "setting": "[1]", "value": 0.369, "unit": "nM"}, {"measurement": "Fold Change (MFI compared to isotype control at 25 nM)", "setting": "[2]", "value": 1480, "unit": "fold"}, {"measurement": "EC50", "setting": "[3]", "value": 0.37, "unit": "nM"}, {"measurement": "Fold Change (MFI compared to isotype control antibody at 25 nM)", "setting": "[4]", "value": 2780, "unit": "fold"}, {"measurement": "EC50", "setting": "[5]", "value": 0.33, "unit": "nM"}, {"measurement": "EC50", "setting": "[6]", "value": 0.329, "unit": "nM"}, {"measurement": "Kd", "setting": "[7]", "value": 32.6, "unit": "nM"}, {"measurement": "koff", "setting": "[7]", "value": 0.00519, "unit": "s⁻¹"}, {"measurement": "kon", "setting": "[7]", "value": 159000, "unit": "M⁻¹ s⁻¹"}, {"measurement": "t1/2", "setting": "[7]", "value": 2.2, "unit": "min"}, {"measurement": "IC50 [M], reduction of AP1-luciferase activity in CD8 T cell/APC luciferase assay", "setting": "[8]", "value": "1.2e-09", "unit": "M"}]}]}
